# Measured values from the supplement of paper PMC10567573.
# B1: SPOPL (parent)
# chain: YTGRAPNLDKMADNLLAAADKYAL
# Variants of: B1
# Assay: protein stability index of a GFP-peptide fusion (GPS, HEK-293T) (PSI 1-6); higher = more stable
# Settings: c terminus: a fixed tail appended
# 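Note: lentivirally expressed fusions sorted by FACS into six bins by GFP to DsRed ratio, PSI derived from sequencing read proportions per bin multiplied by bin number.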
row,Variant,protein stability index
1,YTGRAPNLDKMADNLLKAADKYAL [A17K],2.28
2,YTGRAPNLDKMADNLLPAADKYAL [A17P],1.95
3,YTGRAPNLDKMADNLLNAADKYAL [A17N],2.44
4,YTGRAPNLDKMADNLLCAADKYAL [A17C],2.28
5,YTGRAPNLDKMADNLLAAADKYSL [A23S],1.97
6,YTGRAPNLDKMADNLLAAADKYVL [A23V],1.54
7,YTGRAPNLDKMADNLLAAADKYGL [A23G],1.83
8,YTGRAPNLDKMADNLLAAADKYPL [A23P],2.24
9,YTGRAPNLDKMADNLLAAADKYNL [A23N],2.3
10,YTGRAPNLDKMADNLLAAADKYKL [A23K],2.37
11,YTGRAPNLDKMADNLLAAADKYCL [A23C],2.57
12,YTGRAPNLDKMADNLLAAADKYAE [L24E],3.11
13,YTGRAPNLDKMADNLLAAADKYAC [L24C],2.37
14,YTGRAPNLDKMADNLLAAADKYAW [L24W],1.86
15,YTGRAPNLDKMADNLLAAADKYAK [L24K],2.55
16,YTGRAPNLDKMADNLLAAADKYAA [L24A],2.02
17,YTGRAPNLDKMADNLLAAADKYAT [L24T],2.42
18,YTGRAPNLDKMADNLLAAADKYAY [L24Y],1.89
19,YTGRAPNLDKMADNLLAAADKYAN [L24N],2.66
20,YTGRAPNLDKMADNLLAAADKYAG [L24G],2.78
21,YTGRAPNLDKMADNLLAAADKYAR [L24R],2.24
22,YTGRAPNLDKMADNLLAAADKYAI [L24I],2.02
23,YTGRAPNSDKMADNLLAAADKYAL [L8S],1.83
24,YTGRAPNQDKMADNLLAAADKYAL [L8Q],2.58

row,Variant,protein stability index
1,YTGRAPNTDKMADNLLAAADKYAL [L8T],2.55
2,YTGRAPNKDKMADNLLAAADKYAL [L8K],2.16
3,YTGRAPNGDKMADNLLAAADKYAL [L8G],2.81
4,YTGRAPNNDKMADNLLAAADKYAL [L8N],2.94
5,YTGRAPNPDKMADNLLAAADKYAL [L8P],3.29
6,YLGRAPNLDKMADNLLAAADKYAL [T2L],2.76
7,YPGRAPNLDKMADNLLAAADKYAL [T2P],2.75
8,YYGRAPNLDKMADNLLAAADKYAL [T2Y],2.15
9,YEGRAPNLDKMADNLLAAADKYAL [T2E],3.81
10,YAGRAPNLDKMADNLLAAADKYAL [T2A],1.32
11,YQGRAPNLDKMADNLLAAADKYAL [T2Q],2.29
12,YMGRAPNLDKMADNLLAAADKYAL [T2M],2.24
13,YKGRAPNLDKMADNLLAAADKYAL [T2K],2.49
14,YWGRAPNLDKMADNLLAAADKYAL [T2W],2.01
15,YTGRAPNLDKMADNLLAQADKYAL [A18Q],3.07
16,YTGRAPNLDKMADNLLAIADKYAL [A18I],1.42
17,YTGRAPNLDKMADNLLAFADKYAL [A18F],1.77
18,YTGRAPNLDKMADNLLATADKYAL [A18T],1.99
19,YTGRAPNLDKMADNLLAVADKYAL [A18V],2.31
20,YTGRAPNLDKMADNLLANADKYAL [A18N],2.01
21,YTGRAPNLDKMADNLLAARDKYAL [A19R],2.25
22,YTGRAPNLDKMADNLLAAGDKYAL [A19G],2.23
23,YTGRAPNLDKMADNLLAAEDKYAL [A19E],2.33
24,YTGRAPNLDKMADNLLAAYDKYAL [A19Y],2.11

row,Variant,protein stability index
1,YTGRAPNLDKMADNLLAANDKYAL [A19N],2.49
2,YTGRAPNLDKMADNLLAADDKYAL [A19D],2.76
3,YTGRAPNLDKMADNLLAAFDKYAL [A19F],1.5
4,YTGRAPNLDKMADNLLAAADHYAL [K21H],1.89
5,YTGRAPNLDKMADNLLAAADDYAL [K21D],2.36
6,YTGRAPNLDKMADNLLAAADYYAL [K21Y],1.13
7,YTGRAPNLDKMADNLLAAADPYAL [K21P],2.48
8,YTGRAPNLDKMADNLLAAADIYAL [K21I],1.42
9,YTGRAPNLDKMADNLLAAADEYAL [K21E],3.6
10,YTGRAPNLDKMADNLLAAADQYAL [K21Q],3.78
11,YTGRAPNLDKMADNLLAAADMYAL [K21M],1.65
12,YTGRAPNLDKMADNLLAAADNYAL [K21N],2.11
13,YTGRAPNLDKMADNLLAAADWYAL [K21W],2.02
14,YTGRAPNLDKMADNLLAAADAYAL [K21A],2.04
15,YTGEAPNLDKMADNLLAAADKYAL [R4E],3.04
16,YTGCAPNLDKMADNLLAAADKYAL [R4C],2.31
17,YTGVAPNLDKMADNLLAAADKYAL [R4V],1.88
18,YTGRAPNLDKMADNLGAAADKYAL [L16G],2.94
19,YTGRAPNLDKMADNLNAAADKYAL [L16N],2.22
20,YTGRAPNLDKMADNLDAAADKYAL [L16D],3.83
21,YTGRAPNLDKMADNLTAAADKYAL [L16T],3.25
22,YTGRAPNLDKMADNLHAAADKYAL [L16H],2.97
23,YTGRAPNLDKMADNLIAAADKYAL [L16I],2.33
24,YTGRAPRLDKMADNLLAAADKYAL [N7R],1.48

row,Variant,protein stability index
1,YTGRAPWLDKMADNLLAAADKYAL [N7W],1.84
2,YTGRAPGLDKMADNLLAAADKYAL [N7G],1.89
3,YTGRAPELDKMADNLLAAADKYAL [N7E],1.99
4,YTGRAPKLDKMADNLLAAADKYAL [N7K],1.68
5,YTKRAPNLDKMADNLLAAADKYAL [G3K],2.18
6,YTARAPNLDKMADNLLAAADKYAL [G3A],2.17
7,YTFRAPNLDKMADNLLAAADKYAL [G3F],1.93
8,YTNRAPNLDKMADNLLAAADKYAL [G3N],2.83
9,YTPRAPNLDKMADNLLAAADKYAL [G3P],2.14
10,YTMRAPNLDKMADNLLAAADKYAL [G3M],2.68
11,YTVRAPNLDKMADNLLAAADKYAL [G3V],2.62
12,YTDRAPNLDKMADNLLAAADKYAL [G3D],3.99
13,YTSRAPNLDKMADNLLAAADKYAL [G3S],2.1
14,YTGRAINLDKMADNLLAAADKYAL [P6I],1.85
15,YTGRAHNLDKMADNLLAAADKYAL [P6H],1.09
16,YTGRACNLDKMADNLLAAADKYAL [P6C],1.65
17,YTGRAVNLDKMADNLLAAADKYAL [P6V],2.11
18,YTGRADNLDKMADNLLAAADKYAL [P6D],2.31
19,YTGRAQNLDKMADNLLAAADKYAL [P6Q],2.19
20,YTGRASNLDKMADNLLAAADKYAL [P6S],2.16
21,YTGRAMNLDKMADNLLAAADKYAL [P6M],2.2
22,YTGRARNLDKMADNLLAAADKYAL [P6R],2.44
